Measured values published in paper PMC3143260 (2012).
Where two headings read alike, the source gives them in different places.

T1: RPP21 (Pyrococcus furiosus, UniProt Q8U0H6)
T1 chain: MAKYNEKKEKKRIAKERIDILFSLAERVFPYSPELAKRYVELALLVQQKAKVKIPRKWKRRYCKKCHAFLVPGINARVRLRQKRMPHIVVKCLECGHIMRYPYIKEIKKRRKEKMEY


Assays:
RPP21 [1] = target: T1, RPP21; assay: ITC
RPP21 [2] = target: T1, RPP21; assay: ITC

| Kd (RPP21 [1]) | Kd (RPP21 [2]) | Binder |
| --- | --- | --- |
| 230 nM |  | RPP29 18-127 (protein) GSYQEIIGRTWIFRGAHRGRVNKKNIVWHELIGLKVRVVNSTHPGYVGIEGYVIDETRNMLVIAGENKVWKVPKDVCIFEFETWDGTKIKISGEKLVGRPEMRLKKRWRK |
| 250 nM | 250 nM | RPP29 1-127 (protein) MWRNSEERENRTSGRSQGSYQEIIGRTWIFRGAHRGRVNKKNIVWHELIGLKVRVVNSTHPGYVGIEGYVIDETRNMLVIAGENKVWKVPKDVCIFEFETWDGTKIKISGEKLVGRPEMRLKKRWRK |
